Laboratory results: article PMC9363494 (2022)

Target: full-length α-synuclein (UniProt P37840 1-140)
Experiment: NMR; segment 1 (Seg-1)

- Kd: 750 µM
B1: protein disulfide isomerase (enzyme)
chain: not shown
